Here are results for three molecules from PMC2063517, “Leptospira interrogans Endostatin-Like Outer Membrane Proteins Bind Host Fibronectin, Laminin and Regulators of Complement” (PLoS ONE, 2007).

Experiment [1] deals with murine laminin (murine). Kind of experiment: ELISA; 1 µg murine laminin immobilised in microtiter wells, soluble LenA or LenB added in PBS-based binding buffer, detected by anti-polyhistidine; Kd = concentration of Len protein giving half-maximal binding; in some experiments additional NaCl or porcine heparin in the buffer (heparin also preincubated with laminin). In general terms: ELISA stands for enzyme-linked immunosorbent assay.

Experiment [2] concerns the target murine laminin (murine). Kind of experiment: ELISA; data not shown: laminin immobilised, 1 µM LenB with 1 µM or 4 µM heparin in the binding buffer.
Experiment [3] deals with 30-kDa amino-terminal domain of fibronectin (human). Kind of experiment: ELISA; human plasma fibronectin or its proteolytic fragments (70 kDa, 30 kDa NTD, 45 kDa GBD) immobilised in wells, soluble LenA or LenB added, detected by anti-polyhistidine; Kd = concentration of Len protein giving half-maximal binding.
The target of experiment [4] is human plasma fibronectin (intact) (human). The experiment is described as above. Particulars: both partners purified.

For “recombinant LenA (leptospiral endostatin-like protein A), L. interrogans serovar Lai (from UniProt Q8F863 1-240) (natural protein)”, in experiment [1], the binding of 1 µM LenA with 1 µM heparin, percent of the no-heparin control is 26%; the percent reduction of binding at 200 mM NaCl against 150 mM NaCl was 49%; the percent reduction of binding at 500 mM NaCl against 150 mM NaCl turned out to be 60%.

As a reminder, the Kd is the free concentration of one partner at which half of the binding sites on the other are occupied at equilibrium, for simple one-to-one binding. Higher therefore signals lower affinity. For the molecule “recombinant LenB, L. interrogans serovar Bratislava (from UniProt A8SKK5 1-236) (natural protein)”, in experiment [2], the binding of 1 µM LenB with 1 µM heparin, percent of the no-heparin control came to 75% and the binding of 1 µM LenB with 4 µM heparin, percent of the no-heparin control was 55%. In experiment [3], the Kd is 69.5 nM. In experiment [1], this molecule came in with a Kd of 118 nM; a binding of 0.25 µM LenB with 50 µM heparin (laminin preincubated with 50 µM heparin), percent of the no-heparin control of 25%; a percent inhibition of binding at 200 mM NaCl against 150 mM NaCl of 40%; a percent inhibition of binding at 500 mM NaCl against 150 mM NaCl of 79%.

B1: recombinant LenB, L. interrogans serovar Bratislava (natural protein)
chain: MFKNIFLIFLTGSVVCILWSCGDKKEEDNSDLLLFLLNSLGSSNSAASTVVTSCKDASFCRTFVATNNGAGYDGNLGGISGADAKCAAAKSSNLTGTYKALLAAMGTREAVFVGDGSTRLVDWVLYPNKQYRRSDGTTTTFTTNANSVVTANLQNSVDVGAEKFYWIGVGNQPATFDWEVSLNCNDWNSNNAVNFAIDGTTSSNEVFAGDGATPGGAFGSHNTGCNIRLNLLCVEQ
notes: Made with the vector pET200 (Invitrogen); source: E. coli, inclusion bodies, purified in 8M urea (MagneHis nickel beads), dialyzed against PBS; dissolved into PBS after 2-3 days at 4°C
In the case of B1, the Kd in experiment [4] came to 106 nM.
